# Laboratory results as given in US20210246195A1 (CZ BIOHUB SF, published 2021).
# Substitutions are numbered along the chain they refer to.
# B1: PA11P1G04 (antibody, human IgG1, V domains shown)
# VH: EVQLVESGGGLVQPGGSLRLSCAASGFTFSSYWMSWVRQAPGKGLEWVANIKQDGSEKDYVDSVKGRFTISRDNAKNSLYLQLNSLRAEDTAVYYCARERSTQSSSWYVSSYYSYYGMDVWGQGTTVTVSS
# VL: SSELTQDPAVSVALGQTVTITCQGDSLRSFYASWYQQKPGQAPVFVIYGKYNRPSGIPDRFSGSSSGNTASLTITGAQAEDEADYYCNSRDSSDNHLGVFGGGTKLTVL
# notes: human IgG1
# B2: PA11P1C04 (antibody, human IgG1, V domains shown)
# VH: QVQLQESGPGLVKPSETLSLTCTVSGGSISSYYWNWIRQPPGKGLEWIGYIYYSGSTNYNPSLKSRATISVDTSKNQFSLKLSSVTAADTAVYYCARANLFGVALRRVLGPFDYWGQGTLVTVSS
# VL: DIQMTQSPSSLSASVGDRVTIACRASQSIANYLNWYQQKPGKAPKLLIYAASNLQSGVPSRFSGSGSGTDFTLTISSLQPEDFATYYCQQSYSTPYTFGQGTKLEIK
# notes: human IgG1
# B3: PA14P1D11 (antibody, human IgG1, V domains shown)
# VH: EVQLLESGGGLVQPGGSLKLSCVASGFTFSSYAMMWVRQAPGKGLEWISSISSSGGSTYYADSVKGRFTISRDNSKNTLYLQMNSLRVEDTAVYYCAKSHCSTTSCPRAFYYYGMDVWGQGTTVTVSS
# VL: DIQMTQSPSSLSASVGDRVTITCRASQTITTYLNWYQQKPGKAPKLLIYAASSLQSGVPSRFSGSGSGTDFTLSLSSLQPEDSATYYCQQSYSTLGAFGGGTKVEIK
# notes: subject PA14; also called Clone PA14P1D11
# B4: PA14P3H08 (antibody, human IgG1, V domains shown)
# VH: QVQLVESGGGVVQPGRSLTLSCAASGFNFKTYGMHWVRQAPGKGLEWVAVIYHDGNDKFYADSVKGRFTISRDNSKNTLYVQMSSLRADDTAIYYCAKGIFSSGYHYGMDVWGQGTAVIVSS
# VL: DIQMTQSPSSLSASLGDSVTITCLASQGIKEFLSWFQQKPGQAPKLLIYDASSSHSGVPSRFSGSGSATHFTLTISSLQPDDIATYYCQQYHQVPLTFGQGTRLEIK
# notes: human IgG1
# B5: PA12P3E04 (antibody, human IgG1, V domains shown)
# VH: EVKVVESGGGLVQPGGSLRLSCAASEFTFTYYWMSWIRQAPGKGLEWVANVNGDATEKYYVDSVKGRFTISRDNPKKTVYLQMNSLRVEDTAVYYCARVGTTVVNDGFDLWGLGTMVTVSS
# VL: SYVLTQSHSVSVAPGQTARITCGGENIGGKGVHWYQQKPGQAPLLVVSSDTGRRSVTPDRFSGSNSGDTATLIISRVEAGDEADYYCQVWDPTSEYVFGSGTKVTVL
# notes: human IgG1
# B6: PA11P1E01 (antibody, human IgG1, V domains shown)
# VH: QVQLVQSGSELRRPGASVKVSCKTSGYAFTHFAMNWLRQAPGQGLEWLGWINTHSGNPTYAQGFTGRIVFSLDTSAGTAYLEISSLKAEDTAVYYCARERYFDFWGQGTLVAVSS
# VL: QSVLTQPPSASGTPGQRVTISCSGTNSNIGKNFLYWYQQLPGTAPKLLIFSSNQRPSGVPDRFSGSKSGTSASLAISGLRSEDEADYYCAAWDDNLSGWVFGGGTKVTVL
# notes: human IgG1
# B7: PA11P1C11 (antibody, human IgG1, V domains shown)
# VH: B6 VH with R13K, V20L, K23R, A28T, T30I, I68F, T74V, S85G, T109A
# VL: B6 VL with N26S, L40V, F50Y, N95S
# notes: human IgG1
# B8: PA11P1D12 (antibody, human IgG1, V domains shown)
# VH: QVQLRVSGPGLVNPSETLSLTCIVSGDSLRDYYWSWIRQSPGKGLEWIGYVTESGGAHYNPSLESRVTISVDASKTQFSLNLKSVTAADTAVYYCARDAYSSTWYTVGWFDPWGPGSLVTVSS
# VL: EIVLTQSPATLSLSPGERATLSCRASQDVGVYLAWYQQKPGQAPRLIIYDASDRVSGVPARFTGSGSGTDFTLTITSLEPEDFAVYFCQQRTSGLTFGGGTTLEIK
# notes: human IgG1
# B9: PA11P1F03 (antibody, human IgG1, V domains shown)
# VH: QVQLQQWGAGLLKPSETLSLNCTVYHGSLSTSYWSWIRQPPGRGLEWIGEINDSGATNYNPSLKSRVIISVDTSKDQFSLKLTSVTAADTAMYYCARAPLLWVGESFFYYFDSWGQGILVTVSS
# VL: DIQMTQSPSSLSASVGDRVSITCRAGQSIDTYLNWYQHKPGKAPDLLIYTTSTLHSGVPSRFSGSGSGTDFTLTITSLQPEDFAIYYCQQSYKSPYTFGQGTKVEIK
# notes: human IgG1
# B10: PA11P1C03 (antibody, human IgG1, V domains shown)
# VH: EVQLVQSGGGLVKPGGSLRLSCAASGSTLTNYNINWVRQAPGKGLQWVSSISGTRDYTYYADSVVGRFTISRDNAKNSVYLQMNSLRAEDTAVYYCARGREVGGDYDSYDWGQGTLVTVSS
# VL: DIQMTQSPSSLSASVGDRVTITCQASQDISTFLHWYQQKPGKAPSVLIYGASDLKTGVPSRFSGSGSGTHFTLTISSLQPEDIATYYCQQYDHLPLTFGGGTKVEIK
# notes: human IgG1
# B11: PA12P3C01 (antibody, human IgG1, V domains shown)
# VH: QVQLVQSGAEVKKPGASVKVSCQASGYTFTRYDINWVRQATGQGLEWMGWLNPKSGDTGYAQKFQGRVTMTRDTSISTAYMELTSLTSDDTAVYYCARGVDANHWGQGSLVTVSS
# VL: DIVVTQSPDSLAVSLGERATINCKSSQSIFDTSSNKNYLAWFRQRPGQPPQLLIYWASTRESGVPDRFSGSGSGTDFTLTISSLQAEDVAVYYCHQYYSLPHAFGQGTKLEIK
# notes: human IgG1
# B12: PA01P2E06 (antibody, V domains shown)
# VH: HVQLVQSGADVKKPGSSVKVSCKFSGGTFNNDSINWVRQAPGQGLEWMGVIMPFFGATRFAPKFQGRVTLTADKFTSTGYMELGSLKSDDTAVYYCARDKPPDDKWADYGMDVWGQGTTVTVSS
# VL: SYELTQPPSVSVSPGQTARITCSGDALPKQYVYWYQQKTGQAPVLVIYKDTERPSGIPERFSGSTSGTTVTLTISGVQADDEADYFCQSADRNANYRVFGGGTKLTVL
# notes: subject PA01; also called Clone PA01P2E06
# B13: PA01P2A12 (antibody, V domains shown)
# VH: QVQLVQSGAEVKKPGASVMLSCKASGYIFTNSDINWVRQAPGQGPEWMGWMNPKSGNTGYEQKFQGRVTMTTNTSISTAYMELSRLRSEDTAVYYCARSTGAVAGNFDYWGQGTPVTVSS
# VL: EIVMTQSPATLSVSLGDRATLSCRASQSISRNLAWYQQKPGQAPRLLIYGASIRITDIPARFSGSGSGTEFTLTISSLQSEDFAIYFCQQYNNWRTFGQGTRVELK
# notes: subject PA01; also called Clone PA01P2A12
# B14: PA01P2C05 (antibody, V domains shown)
# VH: QLLLQESGPGLVKPSETLSLSCTVSAGSITSINYSWGWIRQPPGKGLEWIASVYFSGSIYYNPSLKSRVAISVDTSKNTFSLNLTSVTAADTAVYYCARLRLDTGRDSSGLSYREHFDYWAQGTLVTVSS
# VL: DIQMTQSPSTLSASVGDRVTITCRASQSIGMWLAWFQQKPGKAPKLLIYKASTLESGVPSRFSGSGSGTEFTLTINSLQPDDFATYYCQQYNSYLFTFGPGTKVDIK
# notes: subject PA01; also called Clone PA01P2C05
# B15: PA01P2A05 (antibody, V domains shown)
# VH: QVQLQESGPGLVKPSQTLSLTCTVSGGSMRSGDYYWSWIRQPPGKGLEWIGYIYFTGSSYYNPSLKSRATISVDTSKNQFSLKLNSVTAADTAVYFCARGVDVDLTFFDCWGHGTLVTVSS
# VL: SYVLTQPPSVSLAPGKTARITCGGNNIGNKSVHWYQQKPGQAPVLVIYYDSDRPSGIPERFSGSNSGNTATLTINRVEAGDEADYHCQVWDSSTDHRVFGEGTKLTVL
# notes: subject PA01; also called Clone PA01P2A05
# Target: T1, BSA (UniProt P02769 25-607)
# T1 construct: also called bovine serum albumin; immobilized BSA
# Assay: indirect ELISA heat map, hIgG subtracted
# T1 sequence (P02769 25-607 limits assumed): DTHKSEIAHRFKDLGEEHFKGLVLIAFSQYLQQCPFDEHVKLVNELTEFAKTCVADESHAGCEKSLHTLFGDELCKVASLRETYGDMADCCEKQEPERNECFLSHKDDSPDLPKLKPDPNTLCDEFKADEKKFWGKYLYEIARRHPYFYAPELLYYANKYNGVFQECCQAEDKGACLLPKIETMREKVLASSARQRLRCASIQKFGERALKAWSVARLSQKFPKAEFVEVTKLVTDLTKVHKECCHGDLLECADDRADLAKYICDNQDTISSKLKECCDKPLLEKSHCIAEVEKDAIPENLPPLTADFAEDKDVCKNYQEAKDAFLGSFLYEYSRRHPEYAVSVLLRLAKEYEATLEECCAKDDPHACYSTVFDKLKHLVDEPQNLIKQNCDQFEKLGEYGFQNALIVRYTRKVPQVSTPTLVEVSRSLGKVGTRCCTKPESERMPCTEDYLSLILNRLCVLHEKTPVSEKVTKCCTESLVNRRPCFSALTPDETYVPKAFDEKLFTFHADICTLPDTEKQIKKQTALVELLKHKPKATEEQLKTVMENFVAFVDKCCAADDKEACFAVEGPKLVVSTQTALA
row,binding result,Binder
1,no binding (tested: 2 ng/µL),B1
2,no binding (tested: 2 ng/µL),B2
3,no binding (tested: 2 ng/µL),B3
4,no binding (tested: 2 ng/µL),B4
5,no binding (tested: 2 ng/µL),B5
6,no binding (tested: 2 ng/µL),B6
7,no binding (tested: 2 ng/µL),B7
8,no binding (tested: 2 ng/µL),B8
9,no binding (tested: 2 ng/µL),B9
10,no binding (tested: 2 ng/µL),B10
11,no binding (tested: 2 ng/µL),B11

# Target: T1, BSA
# Assay: indirect ELISA heat map, hIgG subtracted
# Remark: another data set of the same source
row,binding result,Binder
1,no binding (tested: 2 ng/µL),B12
2,no binding (tested: 2 ng/µL),B13
3,no binding (tested: 2 ng/µL),B14
4,no binding (tested: 2 ng/µL),B15
